Literature values, collected in paper PMC6886688.

Tested on: Tyr134

**Q.** With “Cellular retinoic acid binding protein 2 (CRABP2) (Homo sapiens (inferred; not stated in the article))” as the substance, how does the pKa read?
**A.** ~7.6
